Assay [1] deals with T1, human DNAX accessory molecule-1 (DNAM-1) protein (human, UniProt Q15762 19-336).
T1 construct: whole, on cells; Expressed on BW5147 mouse lymphocyte cells (DNAM-1/BW) or present on human peripheral blood lymphocytes / CD8+ T cells; also called CD226; human DMAM-1 protein
T1 sequence (looked up): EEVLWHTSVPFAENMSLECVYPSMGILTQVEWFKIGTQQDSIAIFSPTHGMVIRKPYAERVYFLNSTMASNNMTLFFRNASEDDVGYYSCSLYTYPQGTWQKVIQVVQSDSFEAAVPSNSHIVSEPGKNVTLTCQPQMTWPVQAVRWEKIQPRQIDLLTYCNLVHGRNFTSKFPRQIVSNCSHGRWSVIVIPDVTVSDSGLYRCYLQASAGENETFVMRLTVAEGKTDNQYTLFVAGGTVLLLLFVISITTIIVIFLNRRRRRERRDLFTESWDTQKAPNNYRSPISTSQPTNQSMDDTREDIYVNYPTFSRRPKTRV
Kind of assay: flow cytometry on 1x10^5 DNAM-1/BW cells.

Assay [2] deals with T1, human DNAX accessory molecule-1 …. Put plainly: flow cytometry; 1x10^5 DNAM-1/BW cells pre-saturated with 1000 ng hCD155-Fc (competitor); remaining hCD155-Fc detected. The method, then: After DNAM-1/BW cells reacted with the hCD155-Fc protein in advance had been reacted with a specific one of the monoclonal antibody No. 1 to No. 6 diluted serially in Test example 6, the hCD155-Fc protein bound to the DNAM-1 protein present on the surfaces of the DNAM-1/BW cells was detected. The detection of the hCD155-Fc protein was conducted using an anti-human IgG antibody. The reaction was made on ice for 30 minutes.
It was also confirmed that, in the range where the concentration of the monoclonal antibody reacted with the DNAM-1/BW cells was low, the reidues of hCD155-Fc protein after the DNAM-1/BW cells had been reacted with the monoclonal antibody No. 3 was smaller than that of hCD155-Fc protein after the DNAM-1/BW cells had been reacted with the monoclonal antibody No. 2. This proves that, in the range where the concentration of the monoclonal antibody reacted with the DNAM-1/BW cells was low, the monoclonal antibody No. 3 had higher activity of inhibiting the interaction between the DNAM-1 protein and the CD155 protein than the monoclonal antibody No. 2. In the range where the concentration of the monoclonal antibody reacted with the DNAM-1/BW cells was high, the difference in the above reactivity between the monoclonal antibody Nos. 2 and 3 was small. The amount of monoclonal antibody No. 3 required for completely inhibiting the interaction between the DNAM-1 protein and the CD155 protein was 300 ng.
A general note: In flow cytometry, cells or beads pass a laser one at a time.

Four molecules from patent US20190127462A1 (UNIVERSITY OF TSUKUBA, published 2019) can be followed below.

B1: anti-human DNAM-1 monoclonal antibody No. 3 (antibody, V domains shown)
VH: EISCKASGYTFTNYWLGWVKQRPGHGLEWIGDIYPGGGYTNYNEKFKGKATLTADTSSSTAYMQLSSLTSEDSAVYFCANAYYRYKGFAYWGQGTLVTVSA
VL: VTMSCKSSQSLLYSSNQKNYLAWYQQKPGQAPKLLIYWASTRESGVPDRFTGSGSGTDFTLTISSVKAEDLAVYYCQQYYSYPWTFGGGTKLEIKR
notes: Mouse hybridoma monoclonal antibody
On to B1, for which, in assay [1], the “minimum amount required for saturating human DNAM-1 on 1x10^5 DNAM-1/BW cells” value (“minimum amount required” for short) is 100 ng. Also, the “amount required for completely inhibiting the interaction between the DNAM-1 protein and the CD155 protein” value in assay [2] stood at 300 ng.

B2: anti-human DNAM-1 monoclonal antibody No. 4 (antibody, V domains shown)
VH: KWGLSEISCKASGYTFTDYNMHWVKQSHGKSLEWIGYIYPYNGGTGYNQKFKSKATLTVDNSSSTAYMELRSLTSEDSAVYYCAGYWYFDVWGAGTTVTVSS
VL: EKVSITCKASQDVGTAVAWYQQKPGQSPKLLIYWASTRHTGVPDRFTGSGSGTDFTLTISNVQSEDLADYFCQQYSSYPWTFGGGTKLEIKR
notes: as for B1
As to B2, the “minimum amount required” value in assay [1] turned out to be 100 ng. The “amount required for completely inhibiting the interaction between the DNAM-1 protein and the CD155 protein” value in assay [2] is 1000 ng.

B3: anti-human DNAM-1 monoclonal antibody No. 1 (antibody, V domains shown)
VH: SQSLSLTCSVTGYSITSGYYWNWIRQFPGNKLEWMGYISYDGSNNYNPSLKNRISITRDTSKNQFFLKLNSVTTEDTATYYCARAYYGNYVGYFDVWGAGTTVTVSS
VL: RVTITCKASQSVSNDVAWYQQKPGQSPKLLIYYASNRYTGVPDRFTGSGYGTDFTFTISTVQAEDLAVYFCQQDYSSPLTFGAGTKLELKR
notes: as for B1
On to B3, for which the “minimum amount required” value in assay [1] is 30 ng. The “amount required for completely inhibiting the interaction between the DNAM-1 protein and the CD155 protein” value in assay [2] is 100 ng.

B4: anti-human DNAM-1 monoclonal antibody No. 2 (antibody, V domains shown)
VH: SQSLSLTCTVTGYSITSDYAWNWIRQFPGNKLEWMGYISYSGTTTYNPSLKSRISITRDTSKNQFFLQLNSVTTEDTATYYCAELSMDYWGQGTSVTVSS
VL: DIVLSQSPAILSVSPGERVSFSCRASQSIGTSIHWYQQRTNGSPRLLIKYASESISGIPSRFSGSGSGTDFTLSINSVESEDIADYYCQQSRSWPLTFGAGTKLELKR
notes: as for B1
For the molecule B4, in assay [1], the “minimum amount required” value was found to be 50 ng. Further, in assay [2], the “amount required for completely inhibiting the interaction between the DNAM-1 protein and the CD155 protein” value is 300 ng.
